Biological target: HLA-DR molecule DRB1*0301 (human)
Test: cell-based or functional assay

B1: peptide SSX-4 37-51 (peptide)
peptide: WEKMKSSEKIVYVYM
B1 was tested, and the “peptide titration assay: recognition by SSX-4 31-50 reactive CD4+ T cells from LAU 331, efficiency against peptide SSX-4 31-50” value was 3 fold.

From US20060051772A1 (LUDWIG INSTITUTE FOR CANCER RESEARCH, published 2006)
